Results from publication PMC4593227, “Biochemical effects of mutations in the gene encoding the alpha subunit of eukaryotic initiation factor (eIF) 2B associated with Vanishing White Matter disease” (BMC Medical Genetics, 2015).
Residue numbers refer to the chain shown, from its start. Blank lines part the entries; values can stand above or below the binder they belong to.

Experiments:
[1] = molecular target: T1, His6-myc-tagged Val183Phe eIF2Bα (human, UniProt Q14232 1-305, Val183Phe); assay: pull-down; His6-myc-eIF2Bα (WT or mutant) co-expressed with myc-tagged eIF2B subunits in HEK293; ~200 μg lysate on Ni2+-NTA agarose, 1 h at 4 °C, lysis buffer (20 mM Hepes-KOH pH 7.6, 50 mM KCl, 0.5 % Triton X-100) with 20 mM imidazole; bound material blotted for myc tag, total and phospho-eIF2α; details: partners not purified
T1 construct: eIF2Bα encoded by EIF2B1 with the VWM patient mutation Val183Phe; residue numbers start with the first methionine of GenBank AAI03764; also called p.Val183Phe; source: HEK293, transfected (calcium phosphate), in lysate
T1 sequence: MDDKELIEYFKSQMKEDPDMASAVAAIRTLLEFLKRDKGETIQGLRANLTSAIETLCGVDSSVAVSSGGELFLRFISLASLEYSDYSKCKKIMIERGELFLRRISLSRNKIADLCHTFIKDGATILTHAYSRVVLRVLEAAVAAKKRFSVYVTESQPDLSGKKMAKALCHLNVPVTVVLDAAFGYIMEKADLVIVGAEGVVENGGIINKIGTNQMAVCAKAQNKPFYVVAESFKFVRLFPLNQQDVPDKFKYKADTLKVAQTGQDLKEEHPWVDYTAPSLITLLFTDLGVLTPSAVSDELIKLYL

[2] = molecular target: T2, His6-myc-tagged Tyr275Cys eIF2Bα (human, UniProt Q14232 1-305, Tyr275Cys); assay: as above; details: partners not purified
T2 construct: eIF2Bα encoded by EIF2B1 with the VWM patient mutation Tyr275Cys; residue numbers start with the first methionine of GenBank AAI03764; also called p.Tyr275Cys; source: HEK293, transfected (calcium phosphate), in lysate
T2 sequence: T1 sequence with F183V, Y275C

[3] = molecular target: T1, His6-myc-tagged Val183Phe eIF2Bα; assay: cell-based or functional assay

reduction in binding relative to WT [1]: ~50%
reduction in binding relative to WT [2]: ~50%
decrease in eIF2B GEF activity of complexes containing Val183Phe eIF2Bα, relative to WT (100 %) [3]: ~30%
B1: myc-tagged eIF2Bβ (natural protein, UniProt P49770 1-351, looked up)
chain: MPGSAAKGSELSERIESFVETLKRGGGPRSSEEMARETLGLLRQIITDHRWSNAGELMELIRREGRRMTAAQPSETTVGNMVRRVLKIIREEYGRLHGRSDESDQQESLHKLLTSGGLNEDFSFHYAQLQSNIIEAINELLVELEGTMENIAAQALEHIHSNEVIMTIGFSRTVEAFLKEAARKRKFHVIVAECAPFCQGHEMAVNLSKAGIETTVMTDAAIFAVMSRVNKVIIGTKTILANGALRAVTGTHTLALAAKHHSTPLIVCAPMFKLSPQFPNEEDSFHKFVAPEEVLPFTEGDILEKVSVHCPVFDYVPPELITLFISNIGGNAPSYIYRLMSELYHPDDHVL
notes: eIF2Bβ, beta subunit of eukaryotic initiation factor 2B; one of 'the other subunits of the eIF2B complex'; source: HEK293, transfected (calcium phosphate), in lysate

reduction in binding relative to WT [1]: ~50%
reduction in binding relative to WT [2]: ~50%
decrease in eIF2B GEF activity of complexes containing Val183Phe eIF2Bα, relative to WT (100 %) [3]: ~30%
B2: myc-tagged eIF2Bγ (natural protein, UniProt Q9NR50 1-452, looked up)
chain: MEFQAVVMAVGGGSRMTDLTSSIPKPLLPVGNKPLIWYPLNLLERVGFEEVIVVTTRDVQKALCAEFKMKMKPDIVCIPDDADMGTADSLRYIYPKLKTDVLVLSCDLITDVALHEVVDLFRAYDASLAMLMRKGQDSIEPVPGQKGKKKAVEQRDFIGVDSTGKRLLFMANEADLDEELVIKGSILQKHPRIRFHTGLVDAHLYCLKKYIVDFLMENGSITSIRSELIPYLVRKQFSSASSQQGQEEKEEDLKKKELKSLDIYSFIKEANTLNLAPYDACWNACRGDRWEDLSRSQVRCYVHIMKEGLCSRVSTLGLYMEANRQVPKLLSALCPEEPPVHSSAQIVSKHLVGVDSLIGPETQIGEKSSIKRSVIGSSCLIKDRVTITNCLLMNSVTVEEGSNIQGSVICNNAVIEKGADIKDCLIGSGQRIEAKAKRVNEVIVGNDQLMEI
notes: eIF2Bγ, gamma subunit of eukaryotic initiation factor 2B; one of 'the other subunits of the eIF2B complex'; source: HEK293, transfected (calcium phosphate), in lysate
